The source of these data is patent US20110271408A1 (University of California, published 2011).

The target in the assay is T1, HAB1-GAL4 AD (Gal4 activation domain (AD)-PP2C fusion protein encoded by pAD-HAB1) (UniProt Q9CAJ0 1-511, limits assumed).
T1 construct: Prey of the yeast two-hybrid assays; also called HAB1-AD
T1 sequence (looked up): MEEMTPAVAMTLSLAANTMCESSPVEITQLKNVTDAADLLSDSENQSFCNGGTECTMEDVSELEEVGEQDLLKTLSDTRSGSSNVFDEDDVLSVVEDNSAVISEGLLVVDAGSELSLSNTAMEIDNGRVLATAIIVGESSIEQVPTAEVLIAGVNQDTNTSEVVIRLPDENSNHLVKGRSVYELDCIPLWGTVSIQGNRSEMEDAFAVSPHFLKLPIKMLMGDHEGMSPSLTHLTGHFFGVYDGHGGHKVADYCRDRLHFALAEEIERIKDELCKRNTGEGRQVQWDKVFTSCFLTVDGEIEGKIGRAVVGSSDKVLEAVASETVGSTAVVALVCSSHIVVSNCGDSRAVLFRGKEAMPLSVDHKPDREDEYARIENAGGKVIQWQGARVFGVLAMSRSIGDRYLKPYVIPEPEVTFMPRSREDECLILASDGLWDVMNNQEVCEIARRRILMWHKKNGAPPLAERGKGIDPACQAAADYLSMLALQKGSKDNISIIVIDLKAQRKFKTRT
Nature of the assay: yeast two-hybrid X-gal staining on increasing concentrations of fenhexamid (Y190 pAD-HAB1).

B1: PYL2 K64R, Y124H, M164I mutant, GAL4 BD fusion (pBD-PYL2) (receptor)
chain: MSSSPAVKGLTDEEQKTLEPVIKTYHQFEPDPTTCTSLITQRIHAPASVVWPLIRRFDNPERYRHFVKRCRLISGDGDVGSVREVTVISGLPASTSTERLEFVDDDHRVLSFRVVGGEHRLKNHKSVTSVNEFLNQDSGKVYTVVLESYTVDIPEGNTEEDTKIFVDTVVKLNLQKLGVAATSAPMHDDE
Turning to B1, the binding result is listed as “no binding”.
